Columns and labels:
[1] = patients with type-2 diabetes; cited from earlier work
[2] = system: renin-angiotensin-aldosterone (RAS) proteins AGT, ACE, AT1; test: RAS protein levels (AGT, ACE, AT1) in PTCs by Western blot; type: cell-based, human; conditions: PTCs treated, then exposed to 100 μg/ml of AOPPs (sample set D)
Method: (§1) Human Tubular Epithelial Cells (HUTEC) cells were cultured in DMEF/F-12 medium containing 10% fetal calf serum, penicillin (200 U/ml) and streptomycin (200 ug/ml) until confluence, and then left serum-free overnight.
In sample set D, the PTCs were treated with either copper-zinc superoxide dismutase (an […], c-SOD), one of two inhibitors of NADPH oxidase (either diphenyleneiodonium (DPI) or apocynin), a pan-PKC inhibitor (Go6983), or PKCα inhibitor (Go6976). The PTCs were then exposed to 100 μg/ml of AOPPs. The protein levels of downstream renin-angiotensin-aldosterone (RAS) proteins were measured relative to β-actin. The expression of […], ACE, and AT1 was examined by Western blot.

[3] = system: p47phox, a subunit of NADPH oxidase; test: Phosphorylation of p47phox in AOPP-exposed proximal tubule cells (immunoprecipitation / co-immunoprecipitation); type: cell-based, human; conditions: PTCs incubated with inhibitor before AOPP exposure (sample set B)
Method: as §1
In sample set B, PTCs were incubated with either a pan-PKC inhibitor (Gö6983) or PKCα inhibitor (Gö6976) before AOPP exposure. Phosphorylation of p47phox was assayed by immunoprecipitation.
In sample set F, the level of phosphorylated p47phox in PTC cells was analyzed by co-immunoprecipitation.

[4] = system: proximal tubule cells (PTCs); test: Intracellular ROS production in proximal tubule cells, fluorometric analysis; type: cell-based, human; conditions: PTCs pre-incubated or transfected, then exposed to AOPPs (sample set C)
Method: as §1
In sample set C, the PTC cells were pre-incubated with either a pan-PKC inhibitor (Gö6983), PKCα inhibitor (Gö6976), anti-RAGE antibody (a-RAGE), transfected with a CD36 siRNA (si-CD36), or both anti-RAGE antibody and transfected with CD36 siRNA (si-CD36+a-RAGE). The PTC cells were then exposed to AOPPs. Intracellular ROS production was determined by a fluorometric analysis.

[5] = system: AGT, ACE and AT1; test: Expression of AGT, ACE and AT1 in HMVECad cells by Western blotting; type: cell-based, human; conditions: HMVECads, 60 minutes, modified RSA versus control
Excerpt: (§2) Interfering with human microvascular endothelial cell (HMVECad) SCARB1 expression or blocking the receptor using an antibody ameliorates the effect of MDA-protein or pentosidine-protein on intracellular ROS production. Cryopreserved HMVECads were purchased from Life Technologies and cultured according to the company's instructions in Medium 131 with attachment factor (M-131-500) and addition of Microvascular Growth Supplement until confluence, and then left serum-free overnight.
(§3) Next, the cells were pre-incubated with a polyclonal anti-SCARB1 antibody (a-SRB) or a polyclonal anti-CD36 antibody (a-CD36) or transfected with either SCARB1 siRNA (si-SRB) or CD36 siRNA (siCD36) before exposure to MDA-RSA or Pent-RSA as above. The pre-incubations were performed in various combinations. The labels beneath each set of bars indicate which pre-incubation and which exposure was made to that set. The bars labelled “NC-siRNA” were pre-incubated with scramble siRNA and exposed to untreated RSA. The dark bars are read using the left y-axis, and the white bars are read using the right y-axis.
After incubating for 60 minutes, the intracellular ROS production was again determined for the cells of FIG. 20 by a fluorometric analysis. The expression levels of AGT, ACE and AT1 were examined by Western blotting.

[6] = system: human microvascular endothelial cell (HMVECad); test: Intracellular ROS production in HMVECad cells, fluorometric analysis; type: cell-based; conditions: for intracellular ROS: HMVECads exposed to modified RSA versus control unmodified RSA; for intracellular ROS production: HMVECads, 100 μg/ml for 15, 30, 60 or 120 minutes, effect of exposure time
Excerpt: as §2
First, HMVECads were treated with 100 μg/ml of one of three solutions. The first solution (MDA-protein) was rat serum albumin (RSA) treated with an equimolar 1 mmol/L solution of malondialdehyde (MDA) and acetaldehyde for 3 days at 37° C. The second solution was pentosidine-RSA, prepared by incubating 0.5 mg of normal RSA with 0.1 M D-glucose in 0.5 ml of 0.1 M sodium phosphate at 37° C. for 14 days. The third solution (the control) was untreated RSA from the same batch. The HMVECads were treated for 15, 30, 60, or 120 minutes. Following the indicated time, intracellular ROS production was determined by a fluorometric analysis.
as §3
(§4) The intracellular ROS was a proxy for NADPH oxidase activation and mitochondrial leakage, both of which are linked to cellular stress and induction of apoptosis. The phospho-PKCα measured membrane-associated PKC signalling induced by oxidation and linked to activation of NADPH oxidase and other cellular stressors.

[7] = system: PKCα; test: Phospho-PKCα (membrane-associated PKC signalling, cellular stress) in HMVECad cells; type: cell-based, human; conditions: HMVECads exposed to modified RSA versus control unmodified RSA
Excerpt: as §2
Next, the cells were pre-incubated with a polyclonal anti-SCARB1 antibody (a-SRB) or a polyclonal anti-CD36 antibody (a-CD36) or transfected with either SCARB1 siRNA (si-SRB) or CD36 siRNA (siCD36) before exposure to MDA-RSA or Pent-RSA as above. The pre-incubations were performed in various combinations. The labels beneath each set of bars indicate which pre-incubation and which exposure was made to that set. […] The dark bars are read using the left y-axis, and the white bars are read using the right y-axis.
as §4

For CC1(C)CC[C@]2(C(=O)O)CC[C@]3(C)[C@H](C(=O)C=C4[C@@]5(C)C=C(C#N)C(=O)C(C)(C)[C@@H]5CC[C@]43C)[C@@H]2C1 [bardoxolone], the nephroprotective effect [1] is listed as “nephroprotective”.

In the case of “copper-zinc superoxide dismutase [c-SOD]”, the “protein levels of RAS proteins (AGT, ACE, AT1) relative to β-actin” value [2] is reported as “lower levels of these proteins”.

In the case of Cn1c2ccccc2c2c3c(c4c5ccccc5n(CCC#N)c4c21)CNC3=O [Gö6976, 12-(2-Cyanoethyl)-6,7,12,13-tetrahydro-13-methyl-5-oxo-5H-indolo(2,3-a)pyrrolo(3,4-c)-carbazole], the “protein levels of RAS proteins (AGT, ACE, AT1) relative to β-actin” value [2] is reported as “lower levels of these proteins”, the “phosphorylation of p47phox” value [3] is reported as “p47phox is phosphorylated through pan-PKC or PKCα” and the “intracellular ROS production” value [4] is reported as “Further reduction”.

In the case of COc1cc(C(C)=O)ccc1O [apocynin], the “protein levels of RAS proteins (AGT, ACE, AT1) relative to β-actin” value [2] is reported as “lower levels of these proteins”.

For c1ccc2c(c1)[I+]c1ccccc1-2 [DPI, diphenyleneiodonium], the “protein levels of RAS proteins (AGT, ACE, AT1) relative to β-actin” value [2] was “lower levels of these proteins”.

B1: MDA-RSA: rat serum albumin treated with an equimolar 1 mmol/L solution of malondialdehyde and acetaldehyde for 3 days at 37° C. (protein)
chain: EAHKSEIAHRFKDLGEQHFKGLVLIAFSQYLQKCPYEEHIKLVQEVTDFAKTCVADENAENCDKSIHTLFGDKLCAIPKLRDNYGELADCCAKQEPERNECFLQHKDDNPNLPPFQRPEAEAMCTSFQENPTSFLGHYLHEVARRHPYFYAPELLYYAEKYNEVLTQCCTESDKAACLTPKLDAVKEKALVAAVRQRMKCSSMQRFGERAFKAWAVARMSQRFPNAEFAEITKLATDVTKINKECCHGDLLECADDRAELAKYMCENQATISSKLQACCDKPVLQKSQCLAEIEHDNIPADLPSIAADFVEDKEVCKNYAEAKDVFLGTFLYEYSRRHPDYSVSLLLRLAKKYEATLEKCCAEGDPPACYGTVLAEFQPLVEEPKNLVKTNCELYEKLGEYGFQNAVLVRYTQKAPQVSTPTLVEAARNLGRVGTKCCTLPEAQRLPCVEDYLSAILNRLCVLHEKTPVSEKVTKCCSGSLVERRPCFSALTVDETYVPKEFKAETFTFHSDICTLPDKEKQIKKQTALAELVKHKPKATEDQLKTVMGDFAQFVDKCCKAADKDNCFATEGPNLVARSKEALA
With B1 the “expression levels of AGT, ACE and AT1” value [5] was “caused an increase in activity compared to the control”, the “intracellular ROS” value [6] was “caused an increase in activity compared to the control” and the “intracellular ROS production” value [6] was “greater ROS production”. For the same molecule, the “phospho-PKCα (cellular stress signalling)” value [7] was “caused an increase in activity compared to the control”.

B2: Pent-RSA: prepared by incubating normal RSA with 0.1 M D-glucose in sodium phosphate at 37° C. for 14 days (protein)
chain: B1 chain
For B2, the “expression levels of AGT, ACE and AT1” value [5] was “caused an increase in activity compared to the control”, the “intracellular ROS” value [6] was “caused an increase in activity compared to the control” and the “intracellular ROS production” value [6] was “greater ROS production”. The “phospho-PKCα (cellular stress signalling)” value [7] was “caused an increase in activity compared to the control”.

Reference: patent publication US20150079111A1, “MECHANISM, DIAGNOSTIC, AND TREATMENTS FOR COMPLICATIONS OF RENAL FAILURE” (priority 2012, published 2015)
